Reference: the supplement of paper PMC11246515
± gives the standard deviation of the averaged measurements.

Assay: total protein half-life in vivo (active degradation + dilution); higher = more stable protein
[1] = E. coli NCM3722 delta-clpP delta-lon delta-hslV, growth: N-lim chemostat, doubling time 6 h
[2] = E. coli NCM3722 delta-clpP, growth: N-lim chemostat, doubling time 6 h
[3] = E. coli NCM3722 delta-lon, growth: N-lim chemostat, doubling time 6 h
[4] = E. coli NCM3722 delta-smpB, growth: N-lim chemostat, doubling time 6 h
[5] = wild type E. coli NCM3722, growth: C-lim chemostat, doubling time 3 h
[6] = wild type E. coli NCM3722, growth: C-lim chemostat, doubling time 6 h
[7] = wild type E. coli NCM3722, growth: C-lim chemostat, doubling time 12 h
[8] = wild type E. coli NCM3722, growth: N-lim chemostat, doubling time 6 h
[9] = wild type E. coli NCM3722, growth: N-lim chemostat, doubling time 12 h
[10] = wild type E. coli NCM3722, growth: P-lim chemostat, doubling time 6 h
[11] = wild type E. coli NCM3722, growth: P-lim chemostat, doubling time 12 h
[12] = E. coli NCM3722 delta-hslV, growth: N-lim chemostat, doubling time 6 h

Sequence	total protein half-life in vivo [1]	total protein half-life in vivo [2]	total protein half-life in vivo [3]	total protein half-life in vivo [4]	total protein half-life in vivo [5]	total protein half-life in vivo [6]	total protein half-life in vivo [7]	total protein half-life in vivo [8]	total protein half-life in vivo [9]	total protein half-life in vivo [10]	total protein half-life in vivo [11]	total protein half-life in vivo [12]
MTDQSHQCVIIGIAGASASGKSLIASTLYRELREQVGDEHIGVIPEDCYYKDQSHLSMEERVKTNYDHPSAMDHSLLLEHLQALKRGSAIDLPVYSYVEHTRMKETVTVEPKKVIILEGILLLTDARLRDELNFSIFVDTPLDICLMRRIKRDVNERGRSMDSVMAQYQKTVRPMFLQFIEPSKQYADIIVPRGGKNRIAIDILKAKISQFFE [P0A8F4]	5.42 ± 0.4 h	4.6 ± 0.34 h	4.87 ± 1.3 h	4.376 ± 0.027 h	2.86 ± 0.035 h	5.074 ± 0.037 h	9.37 ± 0.41 h	4.36 ± 0.07 h	6.72 ± 0.17 h	5.11 ± 0.44 h	9.61 ± 2.1 h	–
MTDVLLCVGNSMMGDDGAGPLLAEKCAAAPKGNWVVIDGGSAPENDIVAIRELRPTRLLIVDATDMGLNPGEIRIIDPDDIAEMFMMTTHNMPLNYLIDQLKEDIGEVIFLGIQPDIVGFYYPMTQPIKDAVETVYQRLEGWEGNGGFAQLAVEEE [P0AEV9]	4.89 h	4.16 h	4.17 h	3.72 ± 0.15 h	3.29 ± 0.42 h	5.01 ± 0.2 h	8.74 h	4.6 h	6.23 h	–	9.42 ± 0.22 h	3.67 ± 0.094 h
MTEHTSSYYAASANKYAPFDTLNESITCDVCVVGGGYTGLSSALHLAEAGFDVVVLEASRIGFGASGRNGGQLVNSYSRDIDVIEKSYGMDTARMLGSMMFEGGEIIRERIKRYQIDCDYRPGGLFVAMNDKQLATLEEQKENWERYGNKQLELLDANAIRREVASDRYTGALLDHSGGHIHPLNLAIGEADAIRLNGGRVYELSAVTQIQHTTPAVVRTAKGQVTAKYVIVAGNAYLGDKVEPELAKRSMPCGTQVITTERLSEDLARSLIPKNYCVEDCNYLLDYYRLTADNRLLYGGGVVYGARDPDDVERLVVPKLLKTFPQLKGVKIDYRWTGNFLLTLSRMPQFGRLDTNIYYMQGYSGHGVTCTHLAGRLIAELLRGDAERFDAFANLPHYPFPGGRTLRVPFTAMGAAYYSLRDRLGV	–	6.23 h	3.84 ± 1.7 h	–	0.265 h	6.7 h	4.55 h	1.81 h	6.25 ± 7.7 h	–	–	5.96 ± 0.34 h
MTEIYEQAKHSLQGEDFSSFNYLFAVNKLLSNPVSYDLGRDLIVRALDSRERFSEHTTILKNMVRKSGLFPYLKKEFTSLTPDDLRVLELYRTPFSDGYVFHSMQFHIFDLLKSGQNVVLSAPTSMGKSAIVDSLLGMGTLKRLVLVVPTVALADETRRRLQERFGDRYQIIHHSSQVCHSDQAVYVLTQERVNERDDIVDIDLFVIDEFYKLAFRQLKSGDIDHQDERVIELNIALSKLLKVSRQFYLTGPFVNSIRGLEKLGYPHTFVSTDFNTVALDVKTFGIKANDDKAKLKALGEIAHACVDATIIYCKSPTVAGLVARELIRLGHGTPTENPHVDWVSEEFDADWDYTVALRNGIGLHFGALPRALQQYTADQFNAGKLRFLLCTSTIIEGVNTIAKNVVIYDNRDGTRSIDKFTHGNIKGRAGRMGVHFVGKIFCLEEIPEDNLNQEVDIPLGIQGIDTPINLLASVQPDHLSEFSQDRFDEVFINDRVSIDLVKKHSYFRVEQFEMLQSMFEMMDDNEFSSLVFHWTPATNFLKTFAKIIARLVPHTFSRNGVPVKPTDVMIAKLAGYLSAESYSEYLKNQIDYARQWISEGEKRTLSIALNNDLKLITNTFGYTLPKVLSLMEDVVKHHAVKRGIRSKVDYTHVKLAFESFHLPPGVNALEEIGIPIQTLHRLVDLLEFSDEADVDELSQYLRDTQDIWSRSIGYVDQMFIRRALGIRRH	6.27 ± 1.3 h	–	–	–	–	–	–	–	–	–	–	–
MTEMAKGSVTHQRLIALLSQEGADFRVVTHEAVGKCEAVSEIRGTALGQGAKALVCKVKGNGVNQHVLAILAADQQADLSQLASHIGGLRASLASPAEVDELTGCVFGAIPPFSFHPKLKLVADPLLFERFDEIAFNAGMLDKSVILKTADYLRIAQPELVNFRRTA	5.051 ± 0.048 h	7.68 h	5.17 ± 0.12 h	3.6 ± 0.12 h	3.19 ± 0.52 h	4.895 ± 0.03 h	8.13 ± 0.88 h	3.564 ± 0.0078 h	5.88 ± 0.3 h	4.71 ± 0.58 h	8.83 ± 0.85 h	3.84 ± 0.28 h
MTENIHKHRILILDFGSQYTQLVARRVRELGVYCELWAWDVTEAQIRDFNPSGIILSGGPESTTEENSPRAPQYVFEAGVPVFGVCYGMQTMAMQLGGHVEASNEREFGYAQVEVVNDSALVRGIEDALTADGKPLLDVWMSHGDKVTAIPSDFITVASTESCPFAIMANEEKRFYGVQFHPEVTHTRQGMRMLERFVRDICQCEALWTPAKIIDDAVARIREQVGDDKVILGLSGGVDSSVTAMLLHRAIGKNLTCVFVDNGLLRLNEAEQVLDMFGDHFGLNIVHVPAEDRFLSALAGENDPEAKRKIIGRVFVEVFDEEALKLEDVKWLAQGTIYPDVIESAASATGKAHVIKSHHNVGGLPKEMKMGLVEPLKELFKDEVRKIGLELGLPYDMLYRHPFPGPGLGVRVLGEVKKEYCDLLRRADAIFIEELRKADLYDKVSQAFTVFLPVRSVGVMGDGRKYDWVVSLRAVETIDFMTAHWAHLPYDFLGRVSNRIINEVNGISRVVYDISGKPPATIEWE	5.07 ± 0.67 h	4.31 ± 0.18 h	4.39 ± 0.049 h	4.28 ± 0.17 h	3.24 ± 0.23 h	5.93 ± 0.12 h	9.65 ± 0.23 h	4.17 ± 0.46 h	6.57 ± 0.082 h	6.09 ± 0.26 h	12.3 ± 0.98 h	4.02 ± 0.45 h
MTEQEKTSAVVEETREAVDTTSQPVATEKKSKNNTALILSAVAIAIALAAGIGLYGWGKQQAVNQTATSDALANQLTALQKAQESQKAELEGIIKQQAAQLKQANRQQETLAKQLDEVQQKVATISGSDAKTWLLAQADFLVKLAGRKLWSDQDVTTAAALLKSADASLADMNDPSLITVRRAITDDIASLSAVSQVDYDGIILKLNQLSNQVDNLRLADNDSDGSPMDSDGEELSSSISEWRINLQKSWQNFMDNFITIRRRDDTAVPLLAPNQDIYLRENIRSRLLVAAQAVPRHQEETYRQALENVSTWVRAYYDTDDATTKAFLDEVDQLSQQNISMDLPETLQSQAMLEKLMQTRVRNLLAQPAAGTTEAKPAPAPQADTPAAAPQGE	5.965 ± 0.022 h	6.63 ± 1.1 h	6.06 ± 0.28 h	6.54 ± 0.59 h	3.15 ± 0.072 h	5.98 ± 0.23 h	11.3 ± 1.5 h	6.09 ± 0.16 h	13.7 ± 0.83 h	6.17 ± 0.24 h	12.8 ± 1.5 h	6.31 ± 0.23 h
MTEQQISRTQAWLESLRPKTLPLAFAAIIVGTALAWWQGHFDPLVALLALITAGLLQILSNLANDYGDAVKGSDKPDRIGPLRGMQKGVITQQEMKRALIITVVLICLSGLALVAVACHTLADFVGFLILGGLSIIAAITYTVGNRPYGYIGLGDISVLVFFGWLSVMGSWYLQAHTLIPALILPATACGLLATAVLNINNLRDINSDRENGKNTLVVRLGEVNARRYHACLLMGSLVCLALFNLFSLHSLWGWLFLLAAPLLVKQARYVMREMDPVAMRPMLERTVKGALLTNLLFVLGIFLSQWAA	–	5.652 ± 0.0067 h	–	–	–	6.18 h	12.6 h	–	–	–	–	6.01 h
